For two molecules, Kd results are on record in US20090264344A1 (University of California, published 2009).

In experiment [1] the target is T1, Glycosylated HIV-1 gp120 (LAV) envelope glycoprotein (HIV-1 (LAV), UniProt P03377 33-516, limits assumed, glycosylated).
T1 construct: domain: gp120; Bought
Kind of experiment: SPR (Biacore 2000), gp120 LAV immobilized on CM5 chip, peptide in flow, 1:1 fit.
Procedure: Surface plasmon resonance (SPR) experiments were done with a Biacore 2000 system (Biacore, Inc., Piscataway, N.J.). The running buffer (pH 7.4) contained 10 mM HEPES, 150 mM NaCl, 3 mM EDTA and 0.005% polysorbate 20. The immobilized proteins (gp120-LAV and CD4) were dissolved at 20 μg/ml in 10 mM sodium acetate, pH 5.0 and immobilized on a Biacore CM5 sensor chip using the amine coupling method. The chip was activated by mixing 400 mM EDC (N-ethyl-N-(3-dimethylaminopropyl)-carbodiimide hydrochloride) and 100 mM N-hydroxysuccinimide. An immobilization level of 6000 response units (RU) was attained for each bound protein. Residual reactive groups on the chip surface were blocked using 1.0 Methanolamine/HCl, pH 8.5.
In those experiments, biosensor chips containing immobilized gp120 or CD4 were perfused with a 1 μg/ml solution of the peptides, and binding was measured by surface plasmon resonance.

Experiment [2] deals with T2, Recombinant human soluble CD4 (full-length 45 kDa glycosylated ectodomain) (human, UniProt P01730 26-396).
T2 construct: extracellular domain; Immobilized on a CM5 chip by amine coupling
Kind of experiment: SPR (Biacore 2000), soluble CD4 immobilized on CM5 chip, peptide in flow, 1:1 fit. (In general: Surface plasmon resonance follows binding to a sensor surface in real time, without labels.)

Experiment [3] addresses T3, Recombinant HIV-1 BaL gp120 (HIV-1 (BaL)).
T3 construct: domain: gp120; also called gp120(BaL); gp120 BaL
The experiment is described as follows: SPR (Biacore 2000), gp120 BaL immobilized on chip, peptide in flow, 1:1 fit.

Bridges are numbered along the chain shown (N, C = ends).

B1: Retrocyclin-1 (RC-100) (peptide)
peptide: cyclo(GICRCICGRGICRCICGR)
modifications: disulfide 7-12, 5-14, 3-16
SMILES: CC[C@H](C)[C@@H]1NC(=O)CNC(=O)[C@H](CCCNC(=N)N)NC(=O)CNC(=O)[C@@H]2CSSC[C@H](NC1=O)C(=O)N[C@@H](CCCNC(=N)N)C(=O)N[C@H]1CSSC[C@H](NC(=O)[C@H](CCCNC(=N)N)NC(=O)[C@@H]3CSSC[C@H](NC(=O)[C@H]([C@@H](C)CC)NC1=O)C(=O)NCC(=O)N[C@@H](CCCNC(=N)N)C(=O)NCC(=O)N[C@@H]([C@@H](C)CC)C(=O)N3)C(=O)N[C@@H]([C@@H](C)CC)C(=O)N2
notes: Made by solid phase synthesis, then oxidized and cyclized; also called Retro1
As for B1, the Kd in experiment [1] is 35.4 nM; in experiment [2], 31 nM; in experiment [3] it was 29.2 nM.

B2: RC-101 (R9K-Retrocyclin) (peptide)
peptide: cyclo(GICRCICGKGICRCICGR)
modifications: disulfide (positions not given here)
notes: Synthetic cyclic congener of retrocyclin; It was unlabelled in the SPR experiments
Turning to B2, the dissociation constant Kd in experiment [1] is 31.2 nM; in experiment [2] it was 28.6 nM; in experiment [3] it was 20.5 nM.

By Kd is commonly meant the free concentration of one partner at which half of the binding sites on the other are occupied at equilibrium, for simple one-to-one binding.
